Data: the supplement of paper PMC10598134
± gives the standard deviation.

Test: collision cross section of modified peptide (TIMS, N2, iRT-aligned); higher = larger / more extended gas-phase ion
Outline: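 Synthetic peptide pools (~100 fmol/µL in 2% acetonitrile/0.1% formic acid, iRT standard spiked 1:40) were separated on a 120-min nanoflow C18 gradient at 60 °C. They were analysed on a timsTOF Pro/HT (dda-PASEF, nitrogen, ~2.4 mbar) and identified with MaxQuant. 1/K0 was calibrated with three reference ions and aligned run-wise to the median iRT peptide deviation. Collision cross section came from the Mason-Schamp equation, averaging 1–3 technical replicates of the most abundant feature per charge state.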

[1] = charge state: 2, modification: Glutarylation
[2] = charge state: 3, modification: Glutarylation
[3] = charge state: 2, modification: Phospho (Y)
[4] = charge state: 2, modification: Trimethyl (K)
[5] = charge state: 3, modification: Trimethyl (K)
[6] = charge state: 2, modification: Methyl (K)
[7] = charge state: 3, modification: Methyl (K)
[8] = charge state: 2, modification: Biotin
[9] = charge state: 2, modification: Citrullination (R)
[10] = charge state: 2, modification: Succinyl
[11] = charge state: 2, modification: Nitro (Y)
[12] = charge state: 2, modification: HexNAc (ST)
[13] = charge state: 3, modification: HexNAc (ST)
[14] = charge state: 3, modification: Phospho (Y)
[15] = charge state: 3, modification: Citrullination (R)
[16] = charge state: 2, modification: Hydroxyproline
[17] = charge state: 3, modification: Hydroxyproline

PASGAGAGAGAGKR [_PASGAGAGAGAGK(Gluratylation)R_]
collision cross section [1]: 357.87 ± 1.2 Å² | collision cross section [2]: 467.6 ± 2 Å²

LAEEENKAK [_LAEEENK(Acetyl (K))AK_]
collision cross section (charge state: 2, modification: Acetyl (K)): 348.53 ± 3.9 Å²

CQGGQETQEYR [_CQGGQETQEY(Phospho (Y))R_]
collision cross section [3]: 381.17 Å²

VLDSGAPIKIPVGPETLGR [_VLDSGAPIK(GlyGly (K))IPVGPETLGR_]
collision cross section (charge state: 2, modification: GlyGly (K)): 467.11 ± 1.6 Å² | collision cross section (charge state: 3, modification: GlyGly (K)): 510.19 ± 1.1 Å²

IQQELQTAKK [_IQQELQTAK(Trimethyl (K))K_]
collision cross section [4]: 374.97 ± 0.61 Å² | collision cross section [5]: 436.54 ± 2.4 Å²

SITHSTVGSKGEK [_SITHSTVGSK(Methyl (K))GEK_]
collision cross section [6]: 402.47 ± 1.2 Å² | collision cross section [7]: 466.28 ± 2.9 Å²

IHNAENIQPGEQKYEYK [_IHNAENIQPGEQK(Trimethyl (K))YEYK_]
collision cross section [5]: 526.11 ± 2.2 Å²

VETTVTSLKTK [_VETTVTSLK(Gluratylation)TK_]
collision cross section [1]: 392.12 ± 0.61 Å²

ANEKTESSSAQQVAVSR [_ANEK(Biotin)TESSSAQQVAVSR_]
collision cross section [8]: 464.95 ± 0.23 Å² | collision cross section (charge state: 3, modification: Biotin): 569.61 ± 0.95 Å²

RGFGFGGFAISAGK [_R(Citrullination (R))GFGFGGFAISAGK_]
collision cross section [9]: 391.71 ± 0.23 Å²

LLEEEDSKLK [_LLEEEDSK(Biotin)LK_]
collision cross section [8]: 405.12 ± 2.5 Å²

GFCFITYTDEEPVKK [_GFCFITYTDEEPVK(Succinyl)K_]
collision cross section [10]: 465.85 ± 1.1 Å²

AEGYEVAHGGR [_AEGY(Nitro (Y))EVAHGGR_]
collision cross section [11]: 365.03 ± 0.17 Å² | collision cross section (charge state: 3, modification: Nitro (Y)): 442.95 ± 1.1 Å²

SEGFDTYR [_SEGFDTY(Nitro (Y))R_]
collision cross section [11]: 336.07 ± 0.95 Å²

DHSKPISNPSDNK [_DHS(HexNAc (ST))KPISNPSDNK_]
collision cross section [12]: 406.95 ± 0.13 Å² | collision cross section [13]: 479.5 ± 0.17 Å²

LQAAYAGDKADDIQK [_LQAAYAGDK(Succinyl)ADDIQK_]
collision cross section [10]: 436.68 ± 1.4 Å² | collision cross section (charge state: 3, modification: Succinyl): 489.74 ± 2.1 Å²

DYGNSPLHR [_DY(Phospho (Y))GNSPLHR_]
collision cross section [3]: 345.01 ± 0.066 Å² | collision cross section [14]: 444.49 Å²

LYAVHQEGNK [_LY(Phospho (Y))AVHQEGNK_]
collision cross section [3]: 367.74 ± 0.74 Å² | collision cross section [14]: 466.01 ± 0.98 Å²

HTLLRAPAPELLPANVAGR [_HTLLR(Citrullination (R))APAPELLPANVAGR_]
collision cross section [15]: 517.22 ± 8.9 Å²

PSVSTKLISK [_PSVSTK(Biotin)LISK_]
collision cross section [8]: 375.49 Å²

VPGALAAAKAAK [_VP(Hydroxyproline)GALAAAKAAK_]
collision cross section [16]: 368.8 ± 0.56 Å² | collision cross section [17]: 444.57 ± 2.8 Å²

GGQGPPGPQGPIGYPGPR [_GGQGPPGPQGPIGYP(Hydroxyproline)GPR_]
collision cross section [16]: 420.55 ± 2.1 Å² | collision cross section [17]: 474.06 ± 0.36 Å²

LAEEENKAK [_LAEEENK(Methyl (K))AK_]
collision cross section [6]: 347.67 ± 0.66 Å² | collision cross section [7]: 422.11 Å²

ALASIDSKLNQAK [_ALASIDSK(Gluratylation)LNQAK_]
collision cross section [1]: 406.86 ± 0.54 Å² | collision cross section [2]: 470.57 Å²

SFEDIHQYR [_SFEDIHQY(Phospho (Y))R_]
collision cross section [3]: 367.21 ± 0.78 Å²

LAEEENKAK [_LAEEENK(Crotonyl)AK_]
collision cross section (charge state: 2, modification: Crotonyl): 351.41 ± 1.1 Å²

SALAAAQTQVAEYK [_S(HexNAc (ST))ALAAAQTQVAEYK_]
collision cross section [12]: 431.97 ± 0.62 Å²

VLTANSNPSSPSAAKR [_VLTANSNPSSPSAAK(Trimethyl (K))R_]
collision cross section [4]: 445.51 ± 0.016 Å² | collision cross section [5]: 518.89 ± 1.6 Å²

GPPRGGPGGELPR [_GPPR(Citrullination (R))GGPGGELPR_]
collision cross section [9]: 368.26 ± 0.27 Å² | collision cross section [15]: 454.52 ± 3.7 Å²

GDAGEPGRPGSPGK [_GDAGEP(Hydroxyproline)GRPGSPGK_]
collision cross section [17]: 446.53 ± 1.3 Å²

DLGKFQVATDALK [_DLGK(Biotin)FQVATDALK_]
collision cross section [8]: 425.47 ± 0.89 Å²

SAGSVESPSVSSTHR [_SAGSVESPSVSST(HexNAc (ST))HR_]
collision cross section [13]: 473.17 ± 1.2 Å²

ANEKTESSSAQQVAVSR [_ANEK(Methyl (K))TESSSAQQVAVSR_]
collision cross section [6]: 440.42 Å² | collision cross section [7]: 486.23 ± 1.8 Å²
